The values that follow come from patent US20210063414A1, “METHODS FOR PREVENTING AND/OR TREATING BONE LOSS CONDITIONS BY MODULATING IRISIN” (Dana-Farber Cancer Institute, Inc., priority 2018, published 2021).

In this assay the target is T1, MLO-Y4 cell surface proteins (Mus musculus, UniProt Q8VCI5).
T1 construct: endogenous in cells; host or cells: MLO-Y4
T1 sequence (Q8VCI5 1-299): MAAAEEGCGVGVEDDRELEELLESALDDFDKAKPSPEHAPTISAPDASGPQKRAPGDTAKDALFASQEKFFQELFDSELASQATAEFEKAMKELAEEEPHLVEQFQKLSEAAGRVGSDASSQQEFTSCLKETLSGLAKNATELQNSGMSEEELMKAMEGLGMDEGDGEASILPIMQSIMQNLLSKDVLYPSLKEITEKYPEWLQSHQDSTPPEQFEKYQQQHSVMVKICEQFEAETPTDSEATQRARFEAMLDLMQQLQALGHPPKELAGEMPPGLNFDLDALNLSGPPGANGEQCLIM
As to the kind of experiment: Crosslinking/co-immunoprecipitation/mass spectrometry (TMT quantitative proteomics) to identify irisin receptors. The format is binding. The note with it: co-precipitated protein Pex19 (PEX19_MOUSE). The procedure: MLO-Y4 cells were seeded on 30×150 mm type-I collagen coated dishes as described in cell culture experiment. At 60% cell density, medium was switched to FreeStyle™ 293 Expression medium. After 4 hours incubation, the cells were chilled on ice for 10 minutes, followed by treatment of 10 nM his-tag irisin or his-tag adipsin for 20 minutes. The cells were then incubated with 1.5 mM DTSSP for 30 minutes on ice to do cross-linking, after washing with 15 ml cold PBS twice. The cross-linking was quenched by addition of a final concentration of 20 mM Tris-pH 7.5. The cells were then harvested and homogenized in 1 ml RIPA buffer containing proteaseinhibitor cocktailand phosphatase-inhibitor cocktail. Whole-cell lysates were homogenized by 10 times passages through a 22G needle fitted to a 3 ml syringe. Homogenized samples were rotated gently in cold room for 20 minutes followed by 15,000×g centrifugation for 10 minutes. After addition of a final concentration of 10 mM imidazole, supernatants were incubated with 100 μl Ni-NTA agarose for 1 hour. After centrifugation at 500×g for 1 minute, the supernatants were aspirated and 1 ml cold RIPA buffer containing 10 mM imidazole were added to the agarose. After 10 minutes rotation in cold room, the supernatants were aspirated and 1 ml cold RIPA buffer containing 30 mM imidazole were added to the agarose. After repeating the washing 3 times, 0.8 ml RIPA buffer containing 250 mM imidazole was added and the agarose was gently rotated in a cold room for 20 minutes. After centrifugation at 1000×g for 2 minutes, the supernatants were transferred to 1.5 ml tube and incubated with 100 μl 0.2% sodium deoxycholate and 100 μl 10% trichloroacetic acid in ice for 1 hour. After centrifugation at 12,000×g for 10 minutes at 4° C., the supernatants were removed and 1 ml cold acetone was added to the pellets followed by vortexing for 10 seconds. After one more washing with cold acetone, the pellets were dried at 37° C., and 39 μl PBS and 13 μl 4×NuPAGE LDS were added to the pellets with a final concentration of 5 mM DTT. Solubilized proteins were incubated at 65° C. for 20 minutes followed by incubation with a final concentration of 14 mM iodoacetamide for 45 minutes in the dark. 38 μl samples were loaded to 4-12% gradient SDS-PAGE for separation followed by Coomassie Blue staining. The gels were submitted to quantitative proteomics.
For in-gel digestions, gels were stained with Coomassie Blue and were excised into 8 equal segments for control and irisin lanes. Gel pieces were destained and dehydrated with 100% acetonitrile, vacuumed dried, and digested in 25 mM HEPES (pH 8.5) with 500 ng sequencing grade trypsin (Promega) and incubated for an overnight at 37° C. (Shevchenko et al. (1996) Anal. Chem. 68:850-858). Digests were treated with 1% formic acid and purified using C18 Stage-Tips as previously described (Rappsilber et al. (2007) Nat. Protoc. 2:1896-1906). Peptides were eluted with 70% acetonitrile and 1% formic acid, then dried using a speedvac. Isobaric labeling of digested peptides was accomplished using 6-plex tandem mass tag (TMT) reagents (Thermo Fisher Scientific, Rockford, Ill.). Reagents, 5.0 mg, were dissolved in 252 μl acetonitrile (ACN) and 5 μl of the solution was added to the digested peptides dissolved in 25 μl of 200 mM HEPES, pH 8.5. After 1 hour at room temperature, the reaction was quenched by adding 1 μl of 5% hydroxylamine. Labeled peptides were combined and acidified prior to C18 Stage-Tips desalting.
All LC-MS/MS experiments were performed on an Orbitrap Fusion™ Lumos mass spectrometer (Thermo Fisher Scientific, San Jose, Calif., USA) coupled with a Proxeon EASY-nLC™ 1200 LC pump (Thermo Fisher Scientific). Peptides were separated on a 100 μm inner diameter microcapillary column packed with 35 cm of Accucore™ C18 resin (1.8 μm, 100 Å, Thermo Fisher Scientific). […]

B1: irisin: secreted cleaved form of FNDC5; recombinant human/mouse irisin with C-terminal his tag produced in HEK293 cells (protein)
chain: DSPSAPVNVTVRHLKANSAVVSWDVLEDEVVIGFAISQQKKDVRMLRFIQEVNTTTRSCALWDLEEDTEYIVHVQAISIQGQSPASEPVLFKTPREAEKMASKNKDEVTMKE
modifications: left off: small tags and cut ends
notes: secreted cleaved form of FNDC5; recombinant human/mouse irisin with C-terminal his tag produced in HEK293 cells
As to B1, the TMT signal-to-noise ratio stood at 23.3696 and the “irisin/adipsin TMT signal-to-noise ratio” value is 0.386.
